# Reference: patent US20260124245A1 (UNIVERSITY OF NORTH CAROLINA AT CHAPEL HILL, published 2026)
# Ends that are not written are not given here.
# B1: NIS1 (high-affinity complementary leucine zipper, HiA C-LZ) (designed binder)
# chain: NLVAQLENEVASLENENETLKNKNLQKKNLIAYLEQEIANLRKKIEG
# modifications: also: purification and detection tags and conjugation cysteine, position not given here
# notes: NIS1 is a mutant of C-LZ 10 nM; not shown: purification and detection tags and conjugation cysteine (Ni-NTA purified, anti-FLAG detected, thiol conjugated); letter
# Biological target: T1, Base Leucine Zipper (B-LZ)
# T1 construct: In FRET it carried an AF555 label; In the cell and EV assays it was conjugated to the surface through Sulfo-SMCC; also called SynZip2
# Assay: titration ELISA on coated B-LZ, anti-FLAG-HRP detection
# Protocol: Enzyme-linked immunosorbent assay (ELISA). Nunc MaxiSorp 96-well plates were coated with Base-Leucine Zipper (B-LZ) at 2.5 μg/mL and incubated overnight at 4° C. The plate was thoroughly washed with 0.1% TBS-Tween (TBST). The wells were washed with 0.1% PBST and then blocked with BSA blocking buffer for 1 h at room temperature before incubation with complementary leucine zipper (C-LZ) concentrations ranging from 1 μM to […] at room temperature for 2 hours before washing. Washes were followed by the addition of 100 μL of anti-FLAG horseradish peroxidase (HRP)-linked monoclonal antibody (1:10,000 mAb, #A8592, Sigma Aldrich, St. Louis, MO) for 1 h at room temperature with rocking. The wells were washed with 0.1% PBST followed by the addition of TMB-ELISA substrate. After a 10 min incubation, 2 M H₂SO₄ was added to stop the reaction. The absorbance was measured at 450 nm and 570 nm with a SpectraMax M5 plate reader (Molecular Devices, Sunnyvale, CA).
# The proteins were then expressed for in vitro testing. Using titration ELISA, the binding affinity of each sequence was tested for its affinity to the base leucine zipper (B-LZ). […] This decision was based on its high binding affinity and high expression levels in E. coli. […]
binder,measurement,value
B1,fold improvement in B-LZ binding compared with C-LZ 10 nM,5 fold
